Reference: doi:10.1101/2024.12.03.626679, “Structure of the SMYD2-PARP1 Complex Reveals Both Productive and Allosteric Modes of Peptide Binding” (bioRxiv, 2024)

What was measured:
[1] = target: SMYD2-L351A/W356A (human, UniProt Q9NRG4 1-433, L351A | W356A); test: cell-based or functional assay
[2] = target: T1, Full-length human SMYD2 (residues 1-433), wild type (human, UniProt Q9NRG4 1-433); test: ITC; NanoITC SV, 27°C, 25 mM Tris pH 7.5, 50 mM NaCl; 40 μM SMYD2 in the cell, 631 μM PARP1 peptide in the syringe, 16 injections of 15 μL; one-site, two-site and binding polynomial models; details: both partners purified
T1 construct: SMYD2, human, full length, residues 1-433; Tag cut off with yeast SUMO Protease 1, native N-terminus; Crystals held AdoHcy; also called SMYD2-WT; wild-type SMYD2; not shown: 6xHis-SUMO, N-terminal, cleaved
T1 sequence (Q9NRG4 whole entry, the tested form may be a part): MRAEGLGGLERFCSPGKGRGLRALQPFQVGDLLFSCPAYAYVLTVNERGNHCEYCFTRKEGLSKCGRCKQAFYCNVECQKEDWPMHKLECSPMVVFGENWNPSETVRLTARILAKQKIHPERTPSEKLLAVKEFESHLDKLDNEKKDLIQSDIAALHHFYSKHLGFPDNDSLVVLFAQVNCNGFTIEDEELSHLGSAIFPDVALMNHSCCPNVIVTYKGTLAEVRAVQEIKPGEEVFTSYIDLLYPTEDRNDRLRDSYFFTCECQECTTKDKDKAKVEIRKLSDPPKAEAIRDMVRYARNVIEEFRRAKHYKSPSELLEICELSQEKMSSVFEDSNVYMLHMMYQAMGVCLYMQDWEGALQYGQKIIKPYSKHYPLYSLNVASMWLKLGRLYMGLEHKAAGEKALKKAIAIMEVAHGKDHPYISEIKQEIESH

SMYD2-L351A/W356A, sequence (Q9NRG4 whole entry L351A/W356A, the tested form may be a part): as the sequence (Q9NRG4 whole entry, the tested form may be a part) above, with L351A, W356A counted along it

KM of steady-state methyltransferase kinetics (MTase-Glo) with the PARP1 peptide as substrate, against wild-type SMYD2 [1]: 4 fold | dH1 (binding polynomial) [2]: -4.2 kJ/mol | dH2 (binding polynomial) [2]: -7.2 kJ/mol | stoichiometry N [2]: 2
B1: PARP1 peptide (13-residue synthetic peptide, human PARP1 residues 522-534) (peptide)
peptide: RMKLTLKGGAAVD
notes: PARP1, human, residues 522-534, holds the target lysine Lys528; also called Lys528-containing PARP1 peptide; source: synthetic peptide (CPC Scientific)
